Data published in article PMC9993738.

Molecular target: SARS-CoV-2 spike S1 subunit (SARS-CoV-2, UniProt P0DTC2 14-685)
Test: bead-based fluorescence

Binder	binding result
SpS1-C4 (ssDNA) DNA: GAACATTGGCGTCCGTGAGCAGCTCGTGGTTGTTTGCTTGTATACTTTTGTGGTTTATCTTGTTTCTGATCACTTCCTCAAACGCCCAA	binds
SpS1-C1 (ssDNA) DNA: GAACATTGGCGTCCGTGAGTGAGACCATAGTCCAGCGAACTAAACCTACCCTAAAGGGCAAGGAAGACGGGCACTTCCTCAAACGCCCAA	binds
